Test results taken from paper PMC7904846, “Nanobody-based chimeric antigen receptor T cells designed by CRISPR/Cas9 technology for solid tumor immunotherapy” (Signal Transduction and Targeted Therapy, 2021).

Biological target: T1, CD105 (Homo sapiens, UniProt P17813)
T1 construct: CD105 (endoglin), human; also called endoglin; CD105 protein
Test: SPR; CD105 Nbs (10 ug/mL) immobilised on PlexArray Nanocapture Sensor Chips; different concentrations injected at 3.0 uL/s; PlexArray HT system; regeneration with 0.05 mol/L NaOH; 25 °C; triplicate
Details: both partners purified

T1 sequence (P17813 26-658): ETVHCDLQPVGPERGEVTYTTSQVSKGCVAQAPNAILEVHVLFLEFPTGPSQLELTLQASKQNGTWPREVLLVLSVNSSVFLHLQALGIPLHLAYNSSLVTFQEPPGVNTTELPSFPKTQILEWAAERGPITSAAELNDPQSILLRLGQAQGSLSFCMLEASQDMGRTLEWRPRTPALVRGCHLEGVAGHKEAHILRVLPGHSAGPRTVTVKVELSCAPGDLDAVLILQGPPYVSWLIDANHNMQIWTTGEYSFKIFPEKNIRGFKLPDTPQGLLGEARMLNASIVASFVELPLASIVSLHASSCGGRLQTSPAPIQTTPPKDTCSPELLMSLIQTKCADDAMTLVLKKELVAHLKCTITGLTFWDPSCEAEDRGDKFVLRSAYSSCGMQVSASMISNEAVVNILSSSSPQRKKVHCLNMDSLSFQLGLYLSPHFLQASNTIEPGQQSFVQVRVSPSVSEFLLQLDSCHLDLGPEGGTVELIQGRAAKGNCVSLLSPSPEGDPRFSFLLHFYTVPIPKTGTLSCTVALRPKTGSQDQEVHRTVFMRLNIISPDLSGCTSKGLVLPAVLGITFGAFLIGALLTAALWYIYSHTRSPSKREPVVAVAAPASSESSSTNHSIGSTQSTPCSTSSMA

B1: Nb C184 (VHH)
VHH: QVQLQESGGGSVQAGGSLRLSCVASGYTVSRGYMGWFRQAPGKEREAVAAIRTGSGSTYYADSVKGRFTISQDNAKNTVYLQMNSLKHEDTGMYYCAASLWYGGNWQSWGSYNYWGQGTQVTVSS
notes: camel VHH selected by phage display against CD105; Cloned in phagemid pMECS, which gives C-terminal hemagglutinin-His6-tagged Nbs; In the CAR the same VHH is joined to the CD8a hinge and transmembrane domain, 4-1BB and CD3zeta; also called anti-CD105 Nanobody (C184); CD105 Nb
- binding result: binds
